Test results reported in IntAct's records for PubMed 31515488.

B1: Cell division cycle 7-related protein kinase (Homo sapiens), O00311 (parent)
chain: MEASLGIQMDEPMAFSPQRDRFQAEGSLKKNEQNFKLAGVKKDIEKLYEAVPQLSNVFKIEDKIGEGTFSSVYLATAQLQVGPEEKIALKHLIPTSHPIRIAAELQCLTVAGGQDNVMGVKYCFRKNDHVVIAMPYLEHESFLDILNSLSFQEVREYMLNLFKALKRIHQFGIVHRDVKPSNFLYNRRLKKYALVDFGLAQGTHDTKIELLKFVQSEAQQERCSQNKSHIITGNKIPLSGPVPKELDQQSTTKASVKRPYTNAQIQIKQGKDGKEGSVGLSVQRSVFGERNFNIHSSISHESPAVKLMKQSKTVDVLSRKLATKKKAISTKVMNSAVMRKTASSCPASLTCDCYATDKVCSICLSRRQQVAPRAGTPGFRAPEVLTKCPNQTTAIDMWSAGVIFLSLLSGRYPFYKASDDLTALAQIMTIRGSRETIQAAKTFGKSILCSKEVPAQDLRKLCERLRGMDSSTPKLTSDIQGHASHQPAISEKTDHKASCLVQTPPGQYSGNSFKKGDSNSCEHCFDEYNTNLEGWNEVPDEAYDLLDKLLDLNPASRITAEEALLHPFFKDMSL
partner: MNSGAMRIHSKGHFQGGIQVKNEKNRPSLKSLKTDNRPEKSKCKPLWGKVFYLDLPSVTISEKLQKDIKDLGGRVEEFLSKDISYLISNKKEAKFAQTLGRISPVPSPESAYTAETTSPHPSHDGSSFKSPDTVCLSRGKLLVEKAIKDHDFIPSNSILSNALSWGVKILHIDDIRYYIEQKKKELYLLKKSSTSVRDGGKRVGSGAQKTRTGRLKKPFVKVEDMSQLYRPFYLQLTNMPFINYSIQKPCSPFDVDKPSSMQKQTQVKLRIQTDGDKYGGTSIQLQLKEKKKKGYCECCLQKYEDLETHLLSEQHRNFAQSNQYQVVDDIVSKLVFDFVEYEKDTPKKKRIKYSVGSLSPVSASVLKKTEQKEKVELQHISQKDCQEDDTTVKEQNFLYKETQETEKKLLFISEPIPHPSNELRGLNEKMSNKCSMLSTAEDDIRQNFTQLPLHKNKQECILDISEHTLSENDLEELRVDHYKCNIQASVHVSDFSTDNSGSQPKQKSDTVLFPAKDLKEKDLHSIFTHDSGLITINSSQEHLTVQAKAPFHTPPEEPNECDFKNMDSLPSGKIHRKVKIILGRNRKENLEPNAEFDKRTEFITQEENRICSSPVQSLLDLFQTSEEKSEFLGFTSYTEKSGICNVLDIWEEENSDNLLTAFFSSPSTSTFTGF
B2: Protein Dr1 (Homo sapiens), Q01658 (parent)
chain: MASSSGNDDDLTIPRAAINKMIKETLPNVRVANDARELVVNCCTEFIHLISSEANEICNKSEKKTISPEHVIQALESLGFGSYISEVKEVLQECKTVALKRRKASSRLENLGIPEEELLRQQQELFAKARQQQAELAQQEWLQMQQAAQQAQLAAASASASNQAGSSQDEEDDDDI
partner: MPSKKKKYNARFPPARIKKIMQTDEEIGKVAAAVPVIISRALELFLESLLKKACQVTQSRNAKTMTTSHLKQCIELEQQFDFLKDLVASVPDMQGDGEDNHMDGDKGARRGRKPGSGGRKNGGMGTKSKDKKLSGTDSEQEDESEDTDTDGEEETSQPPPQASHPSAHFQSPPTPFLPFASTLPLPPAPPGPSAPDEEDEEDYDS
B3: Lymphokine-activated killer T-cell-originated protein kinase (Homo sapiens), Q96KB5 (parent)
chain: MEGISNFKTPSKLSEKKKSVLCSTPTINIPASPFMQKLGFGTGVNVYLMKRSPRGLSHSPWAVKKINPICNDHYRSVYQKRLMDEAKILKSLHHPNIVGYRAFTEANDGSLCLAMEYGGEKSLNDLIEERYKASQDPFPAAIILKVALNMARGLKYLHQEKKLLHGDIKSSNVVIKGDFETIKICDVGVSLPLDENMTVTDPEACYIGTEPWKPKEAVEENGVITDKADIFAFGLTLWEMMTLSIPHINLSNDDDDEDKTFDESDFDDEAYYAALGTRPPINMEELDESYQKVIELFSVCTNEDPKDRPSAAHIVEALETDV
partner: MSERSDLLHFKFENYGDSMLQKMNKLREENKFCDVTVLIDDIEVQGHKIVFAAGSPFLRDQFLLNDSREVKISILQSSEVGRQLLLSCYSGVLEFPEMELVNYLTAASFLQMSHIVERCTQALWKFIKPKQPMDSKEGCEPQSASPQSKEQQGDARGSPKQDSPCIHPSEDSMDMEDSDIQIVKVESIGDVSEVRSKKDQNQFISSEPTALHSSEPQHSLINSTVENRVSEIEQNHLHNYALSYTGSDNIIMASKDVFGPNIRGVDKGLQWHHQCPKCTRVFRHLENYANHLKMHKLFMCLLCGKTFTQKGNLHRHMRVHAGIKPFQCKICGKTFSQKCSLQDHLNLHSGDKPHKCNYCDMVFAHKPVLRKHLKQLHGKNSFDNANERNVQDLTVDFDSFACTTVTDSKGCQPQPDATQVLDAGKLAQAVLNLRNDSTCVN
B4: Golgin-45 (Homo sapiens), Q9H2G9 (parent)
chain: MTTKNLETKVTVTSSPIRGAGDGMETEEPPKSVEVTSGVQSRKHHSLQSPWKKAVPSESPGVLQLGKMLTEKAMEVKAVRILVPKAAITHDIPNKNTKVKSLGHHKGEFLGQSEGVIEPNKELSEVKNVLEKLKNSERRLLQDKEGLSNQLRVQTEVNRELKKLLVASVGDDLQYHFERLAREKNQLILENEALGRNTAQLSEQLERMSIQCDVWRSKFLASRVMADELTNSRAALQRQNRDAHGAIQDLLSEREQFRQEMIATQKLLEELLVSLQWGREQTYSPSVQPHSTAELALTNHKLAKAVNSHLLGNVGINNQKKIPSTVEFCSTPAEKMAETVLRILDPVTCKESSPDNPFFESSPTTLLATKKNIGRFHPYTRYENITFNCCNHCRGELIAL

Variants of: B1
Conditions: with dbf4a_human DBF4, Q9UBU7

| effect of a mutation on the interaction | Variant |
| --- | --- |
| with no effect | I99L |
| with no effect | I99T |
| with no effect | Q456H |
| with no effect | Q106R |

Variants of: B2
Conditions: with nc2a_human DRAP1, Q14919

| effect of a mutation on the interaction | Variant |
| --- | --- |
| with no effect | MASSSGNDDDLTIPRAAINKMIKETLPNVRVANDARELVVNCCTEFIHLISSEANEICNKSEKKTISPEHVIQALESLGFGSYISEVKEVLQECKTVALKRRKASSRLENLGIPEEELLRQQQELFAKARQQQAELAQQEWLQMQQAAQQAQLAAASASASNQAGSSQDEDDDDDI |

Variants of: B3
Conditions: with zbt26_human ZBTB26, Q9HCK0

| effect of a mutation on the interaction | Variant |
| --- | --- |
| with no effect | MEGISNFKTPSKLSEKKKSVLCSTPTINIPASPFMQKLGFGTGVNVYLMKRSPRGLSHSPWAVKKINPICNDHYRSVYQKRLMDEAKILKSLHHPNIVGYRAFTEANDGSLCLAMEYGGEKSLNDLIEERYKASQDPFPAAIILKVALNMARGLKYLHQEKKLLHGDIKSSNVVIKGDFETIKICDVGVSLPLDENMTVTDPEACYIGTEPWKPKEAVEDNGVITDKADIFAFGLTLWEMMTLSIPHINLSNDDDDEDKTFDESDFDDEAYYAALGTRPPINMEELDESYQKVIELFSVCTNEDPKDRPSAAHIVEALETDV [E220D] |
| disrupting interaction strength | MEGISNFKTPSKLSEKKKSVLCSTPTINIPASPFMQKLGFGTGVNVYLMKRSPRGLSHSPWAVKKINPICNDHYRSVYQKRLMDEAKILKSLHHPNIVGYRAFTEASDGSLCLAMEYGGEKSLNDLIEERYKASQDPFPAAIILKVALNMARGLKYLHQEKKLLHGDIKSSNVVIKGDFETIKICDVGVSLPLDENMTVTDPEACYIGTEPWKPKEAVEENGVITDKADIFAFGLTLWEMMTLSIPHINLSNDDDDEDKTFDESDFDDEAYYAALGTRPPINMEELDESYQKVIELFSVCTNEDPKDRPSAAHIVEALETDV [N107S] |
| with no effect | MEGISNFKTPSKLSEKKKSVLCSTPTINIPASPFMQKLGFGTGVNVYLMKRSPRGLSHSPWAVKKINPICNDHYRSVYQKRLMDEAMILKSLHHPNIVGYRAFTEANDGSLCLAMEYGGEKSLNDLIEERYKASQDPFPAAIILKVALNMARGLKYLHQEKKLLHGDIKSSNVVIKGDFETIKICDVGVSLPLDENMTVTDPEACYIGTEPWKPKEAVEENGVITDKADIFAFGLTLWEMMTLSIPHINLSNDDDDEDKTFDESDFDDEAYYAALGTRPPINMEELDESYQKVIELFSVCTNEDPKDRPSAAHIVEALETDV [K87M] |

Variants of: B4
Conditions: with aakb2_human PRKAB2, O43741
Chain of aakb2_human PRKAB2, O43741 (O43741 whole entry): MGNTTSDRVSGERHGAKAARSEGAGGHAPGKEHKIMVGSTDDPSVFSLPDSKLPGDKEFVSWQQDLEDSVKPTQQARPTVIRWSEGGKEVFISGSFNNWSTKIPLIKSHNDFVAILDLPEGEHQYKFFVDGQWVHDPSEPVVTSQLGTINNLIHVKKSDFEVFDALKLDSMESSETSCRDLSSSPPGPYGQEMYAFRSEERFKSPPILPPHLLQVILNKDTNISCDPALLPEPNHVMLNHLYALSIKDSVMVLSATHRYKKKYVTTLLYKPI

| effect of a mutation on the interaction | Variant |
| --- | --- |
| with no effect | MTTKNLETKVTVTSSPIRGAGDGMETEEPPKSVEVTSGVRSRKHHSLQSPWKKAVPSESPGVLQLGKMLTEKAMEVKAVRILVPKAAITHDIPNKNTKVKSLGHHKGEFLGQSEGVIEPNKELSEVKNVLEKLKNSERRLLQDKEGLSNQLRVQTEVNRELKKLLVASVGDDLQYHFERLAREKNQLILENEALGRNTAQLSEQLERMSIQCDVWRSKFLASRVMADELTNSRAALQRQNRDAHGAIQDLLSEREQFRQEMIATQKLLEELLVSLQWGREQTYSPSVQPHSTAELALTNHKLAKAVNSHLLGNVGINNQKKIPSTVEFCSTPAEKMAETVLRILDPVTCKESSPDNPFFESSPTTLLATKKNIGRFHPYTRYENITFNCCNHCRGELIAL [Q40R] |

Variants of: B4
Conditions: with rab2a_human RAB2A

| effect of a mutation on the interaction | Variant |
| --- | --- |
| with no effect | MTTKNLETKVTVTSSPIRGAGDGMETEEPPKSVEVTSGVRSRKHHSLQSPWKKAVPSESPGVLQLGKMLTEKAMEVKAVRILVPKAAITHDIPNKNTKVKSLGHHKGEFLGQSEGVIEPNKELSEVKNVLEKLKNSERRLLQDKEGLSNQLRVQTEVNRELKKLLVASVGDDLQYHFERLAREKNQLILENEALGRNTAQLSEQLERMSIQCDVWRSKFLASRVMADELTNSRAALQRQNRDAHGAIQDLLSEREQFRQEMIATQKLLEELLVSLQWGREQTYSPSVQPHSTAELALTNHKLAKAVNSHLLGNVGINNQKKIPSTVEFCSTPAEKMAETVLRILDPVTCKESSPDNPFFESSPTTLLATKKNIGRFHPYTRYENITFNCCNHCRGELIAL [Q40R] |

Variants of: B4
Conditions: with zbt24_human ZBTB24, O43167
Chain of zbt24_human ZBTB24, O43167 (O43167 whole entry): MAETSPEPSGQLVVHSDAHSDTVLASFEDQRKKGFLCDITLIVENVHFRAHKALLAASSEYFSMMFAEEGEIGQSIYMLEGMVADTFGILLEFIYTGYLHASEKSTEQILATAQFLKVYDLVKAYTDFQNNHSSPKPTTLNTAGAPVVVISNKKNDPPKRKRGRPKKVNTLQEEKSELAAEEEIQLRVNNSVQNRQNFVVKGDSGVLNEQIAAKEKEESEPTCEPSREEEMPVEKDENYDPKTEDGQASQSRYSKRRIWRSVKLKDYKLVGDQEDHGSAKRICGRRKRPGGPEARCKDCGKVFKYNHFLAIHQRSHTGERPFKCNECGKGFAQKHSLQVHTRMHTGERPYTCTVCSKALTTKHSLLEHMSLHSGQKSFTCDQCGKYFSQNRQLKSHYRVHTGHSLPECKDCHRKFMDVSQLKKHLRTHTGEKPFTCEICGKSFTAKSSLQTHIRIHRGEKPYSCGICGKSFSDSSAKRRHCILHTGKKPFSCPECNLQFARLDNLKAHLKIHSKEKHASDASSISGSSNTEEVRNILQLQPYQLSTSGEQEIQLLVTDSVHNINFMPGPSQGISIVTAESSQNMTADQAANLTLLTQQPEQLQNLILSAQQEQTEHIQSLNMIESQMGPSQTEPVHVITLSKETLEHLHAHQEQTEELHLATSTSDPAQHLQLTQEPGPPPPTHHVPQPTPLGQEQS

| effect of a mutation on the interaction | Variant |
| --- | --- |
| with no effect | MTTKNLETKVTVTSSPIRGAGDGMETEEPPKSVEVTSGVRSRKHHSLQSPWKKAVPSESPGVLQLGKMLTEKAMEVKAVRILVPKAAITHDIPNKNTKVKSLGHHKGEFLGQSEGVIEPNKELSEVKNVLEKLKNSERRLLQDKEGLSNQLRVQTEVNRELKKLLVASVGDDLQYHFERLAREKNQLILENEALGRNTAQLSEQLERMSIQCDVWRSKFLASRVMADELTNSRAALQRQNRDAHGAIQDLLSEREQFRQEMIATQKLLEELLVSLQWGREQTYSPSVQPHSTAELALTNHKLAKAVNSHLLGNVGINNQKKIPSTVEFCSTPAEKMAETVLRILDPVTCKESSPDNPFFESSPTTLLATKKNIGRFHPYTRYENITFNCCNHCRGELIAL [Q40R] |
